± gives the uncertainty stated by the source.

B1: Protein C-ets-1, residues 55 to 135; numbered along this chain, P14921 (parent)
chain: GFTKEQQRLGIPKDPRQWTETHVRDWVMWAVNEFSLKGVDFQKFCMNGAALCALGKDCFLELAPDFVGDILWEHLEILQKE

The variants in this data set derive from B1. Briefly: abundance fitness (aPCA) (normalised: wild type 0, dead -1); higher = more abundant; growth selection in yeast, the domain comes from the species named. The following applies: Homo sapiens.
In the case of P15Q, the abundance fitness was -0.838 ± 0.19.

In the case of P15T, the abundance fitness is -0.498 ± 0.067.

On to P15M, for which the abundance fitness was -0.286 ± 0.081.

Turning to P15N, the abundance fitness is -0.717 ± 0.21.

For P15F, the abundance fitness was -0.935 ± 0.14.

Take P15G: the abundance fitness is -0.845 ± 0.068.

Turning to P15L, the abundance fitness was -0.281 ± 0.045.

For the variant G1R, the abundance fitness is -0.191 ± 0.067.

As for G1L, the abundance fitness was -0.157 ± 0.092.

T21R: the abundance fitness was determined as 0.039 ± 0.029.

With T21L, the abundance fitness is -0.064 ± 0.037.

On to T21A, for which the abundance fitness was 0.002 ± 0.033.

As for K56P, the abundance fitness is -0.493 ± 0.043.

On to K56M, for which the abundance fitness was -0.357 ± 0.037.

Regarding L51F, the abundance fitness was -0.894 ± 0.12.

Consider L51I, for which the abundance fitness was -0.15 ± 0.057.

Consider C52E, for which the abundance fitness was -0.542 ± 0.038.

Turning to V27K, the abundance fitness is -0.983 ± 0.39.

As for V27M, the abundance fitness is -0.045 ± 0.049.

As for M46I, the abundance fitness is -0.154 ± 0.074.

For M46Q, the abundance fitness is -0.335 ± 0.065.

For the variant L54M, the abundance fitness was -0.022 ± 0.05.

In the case of L9A, the abundance fitness is -0.182 ± 0.041.

Take L9T: the abundance fitness is -0.082 ± 0.048.

On to L9P, for which the abundance fitness is -0.32 ± 0.072.

Consider L9C, for which the abundance fitness was -0.088 ± 0.089.

As to F41L, the abundance fitness amounted to 0.051 ± 0.028.

In the case of L60E, the abundance fitness was -0.113 ± 0.061.

Consider L60M, for which the abundance fitness is -0.067 ± 0.059.

Take L60T: the abundance fitness is 0.001 ± 0.057.

On to F34W, for which the abundance fitness is -0.039 ± 0.042.

Turning to Q6A, the abundance fitness was determined as 0.019 ± 0.043.

As for Q17A, the abundance fitness worked out at 0.013 ± 0.029.

As to L75H, the abundance fitness was -0.914 ± 0.25.

For L75C, the abundance fitness is -0.964 ± 0.13.

Turning to A49I, the abundance fitness was -0.237 ± 0.04.

For A49M, the abundance fitness was -0.055 ± 0.032.

For A49C, the abundance fitness is -0.372 ± 0.036.

With K43C, the abundance fitness was -0.206 ± 0.039.

With K43G, the abundance fitness was -0.289 ± 0.038.

As to R8G, the abundance fitness was -0.112 ± 0.03.

On to R8S, for which the abundance fitness is -0.136 ± 0.05.

As to E20W, the abundance fitness is -0.463 ± 0.045.

D25M: the abundance fitness was -0.061 ± 0.034.

On to D25F, for which the abundance fitness was -0.124 ± 0.055.

With D25W, the abundance fitness is -0.05 ± 0.045.

On to F2G, for which the abundance fitness was -0.272 ± 0.04.

Take F2L: the abundance fitness was -0.343 ± 0.046.

As to F2Q, the abundance fitness was -0.522 ± 0.15.

Regarding L78V, the abundance fitness is -0.097 ± 0.029.

On to L78S, for which the abundance fitness was -0.508 ± 0.049.

For the variant R24D, the abundance fitness was -0.827 ± 0.13.

Regarding A50C, the abundance fitness is -0.116 ± 0.073.

As for A50I, the abundance fitness is -0.236 ± 0.078.

Regarding W29N, the abundance fitness was -0.586 ± 0.11.

With K37P, the abundance fitness is -0.043 ± 0.041.

Take G68N: the abundance fitness was -0.265 ± 0.09.

Turning to G68Y, the abundance fitness is -0.654 ± 0.13.

Regarding G68Q, the abundance fitness is -0.727 ± 0.11.

Consider V39F, for which the abundance fitness is -0.239 ± 0.096.

In the case of V39L, the abundance fitness is -0.141 ± 0.042.

With S35M, the abundance fitness is -0.142 ± 0.048.

As to S35F, the abundance fitness is -0.413 ± 0.063.

Consider V23Q, for which the abundance fitness was -0.909 ± 0.11.

V23F: the abundance fitness was -0.857 ± 0.11.

With Q7T, the abundance fitness was -0.06 ± 0.047.

Regarding P12W, the abundance fitness is -0.706 ± 0.093.

Turning to F59H, the abundance fitness is -0.953 ± 0.14.

In the case of F59A, the abundance fitness is -0.928 ± 0.054.

In the case of F59C, the abundance fitness is -0.65 ± 0.083.

As for L36C, the abundance fitness is -0.332 ± 0.063.

As for L36N, the abundance fitness is -0.691 ± 0.26.

With L36I, the abundance fitness was -0.215 ± 0.13.

With L36F, the abundance fitness was -0.139 ± 0.059.

Turning to Q42M, the abundance fitness was -0.237 ± 0.066.

For Q42C, the abundance fitness was -0.259 ± 0.061.

As for Q42H, the abundance fitness is -0.068 ± 0.068.

In the case of I77Q, the abundance fitness is -0.029 ± 0.073.

Take I77P: the abundance fitness is -0.346 ± 0.057.

Regarding I77H, the abundance fitness was found to be 0.076 ± 0.1.

As to I77R, the abundance fitness was -0.025 ± 0.035.

On to V31K, for which the abundance fitness was -0.18 ± 0.054.

Regarding V31F, the abundance fitness is -0.645 ± 0.067.

Turning to A30T, the abundance fitness was 0.003 ± 0.04.

A30Q: the abundance fitness was -0.183 ± 0.051.

Regarding A30I, the abundance fitness is -0.196 ± 0.079.

With D65Y, the abundance fitness is -0.04 ± 0.075.

Turning to D65S, the abundance fitness was found to be 0.006 ± 0.039.

Take D65V: the abundance fitness was -0.043 ± 0.041.

For D65W, the abundance fitness is -0.311 ± 0.058.

For C58K, the abundance fitness was -0.007 ± 0.062.

On to K4I, for which the abundance fitness amounted to 0.037 ± 0.11.

In the case of K4Y, the abundance fitness was -0.039 ± 0.092.

Regarding K4H, the abundance fitness was -0.148 ± 0.076.

With I70D, the abundance fitness was -0.532 ± 0.099.

For the variant I70V, the abundance fitness was -0.038 ± 0.043.

On to G55A, for which the abundance fitness came out at 0.002 ± 0.035.

In the case of D40Q, the abundance fitness is -0.045 ± 0.089.

For the variant D40A, the abundance fitness was -0.294 ± 0.038.

Take L71Q: the abundance fitness is -0.938 ± 0.17.

Turning to L71T, the abundance fitness was -0.883 ± 0.14.

With L71K, the abundance fitness was -0.978 ± 0.27.

L71W: the abundance fitness is -0.946 ± 0.11.

For the variant L71E, the abundance fitness is -0.881 ± 0.15.

For the variant F44D, the abundance fitness is -0.724 ± 0.18.

Regarding F44M, the abundance fitness was -0.275 ± 0.074.

Turning to F44T, the abundance fitness is -0.766 ± 0.16.

F44S: the abundance fitness is -0.76 ± 0.067.

Consider F44P, for which the abundance fitness was -0.892 ± 0.1.

Take W72H: the abundance fitness is -0.361 ± 0.084.

As to W72V, the abundance fitness is -0.918 ± 0.086.

Turning to E76D, the abundance fitness is -0.015 ± 0.059.

E76N: the abundance fitness was 0.057 ± 0.32.

Regarding H74S, the abundance fitness was -0.08 ± 0.04.

On to H74M, for which the abundance fitness was -0.271 ± 0.09.

For H74D, the abundance fitness is -0.214 ± 0.074.

In the case of H74A, the abundance fitness was -0.135 ± 0.066.

For the variant H74P, the abundance fitness is -0.794 ± 0.068.

As for H22V, the abundance fitness was -0.673 ± 0.054.

Take H22Q: the abundance fitness was -0.063 ± 0.049.

As for E73C, the abundance fitness was -0.252 ± 0.074.

With W26D, the abundance fitness was -0.668 ± 0.064.

On to W26P, for which the abundance fitness is -0.861 ± 0.048.

As for W26C, the abundance fitness is -0.662 ± 0.058.

Consider W26H, for which the abundance fitness is -0.822 ± 0.089.

Take W26K: the abundance fitness was -0.727 ± 0.066.

E33Y: the abundance fitness is -0.099 ± 0.062.

With E33S, the abundance fitness is -0.117 ± 0.03.

Turning to E33I, the abundance fitness was -0.498 ± 0.1.

For the variant G38E, the abundance fitness is -0.103 ± 0.052.

Regarding T19Q, the abundance fitness is -0.228 ± 0.068.

Take T19V: the abundance fitness was -0.635 ± 0.045.

A63Q: the abundance fitness was -0.282 ± 0.15.

For the variant A63P, the abundance fitness is -1.01 ± 0.13.

On to K13P, for which the abundance fitness was 0.023 ± 0.057.

Take L62H: the abundance fitness is -0.438 ± 0.11.

As for L62A, the abundance fitness was -0.434 ± 0.047.

As for F66R, the abundance fitness came out at 0.033 ± 0.046.

On to F66N, for which the abundance fitness was 0.073 ± 0.094.

In the case of F66D, the abundance fitness amounted to 0.051 ± 0.058.

For the variant F66S, the abundance fitness was found to be 0.036 ± 0.036.

With T3I, the abundance fitness was -0.005 ± 0.049.

On to T3C, for which the abundance fitness was -0.075 ± 0.068.

Regarding T3W, the abundance fitness was -0.031 ± 0.075.

As for T3R, the abundance fitness is -0.082 ± 0.037.

C45K: the abundance fitness was -0.067 ± 0.08.

Consider G48P, for which the abundance fitness is -1.02 ± 0.11.

On to W18K, for which the abundance fitness is -1.01 ± 0.18.

For the variant D14Y, the abundance fitness is -0.407 ± 0.046.

With D14K, the abundance fitness was -0.547 ± 0.071.

Regarding D14C, the abundance fitness is -0.152 ± 0.061.

Consider E5V, for which the abundance fitness was -0.05 ± 0.039.

E5C: the abundance fitness was -0.129 ± 0.077.

E5Q: the abundance fitness was -0.123 ± 0.061.

For E5K, the abundance fitness was -0.183 ± 0.06.

As to I11K, the abundance fitness was -0.695 ± 0.087.

Turning to I11S, the abundance fitness is -0.344 ± 0.039.

Regarding I11T, the abundance fitness is -0.205 ± 0.051.

With M28P, the abundance fitness was -0.88 ± 0.069.

In the case of M28S, the abundance fitness amounted to 0.017 ± 0.033.

In the case of M28E, the abundance fitness was determined as 0.005 ± 0.047.

On to M28G, for which the abundance fitness was -0.055 ± 0.028.

For the variant M28F, the abundance fitness is -0.088 ± 0.057.

In the case of N47Q, the abundance fitness was -0.277 ± 0.049.

With D57P, the abundance fitness was -0.109 ± 0.033.

With D57L, the abundance fitness is -0.216 ± 0.033.

With D57F, the abundance fitness is -0.303 ± 0.065.

The record behind these values is the Human Domainome abundance scans (Beltran et al. 2025).
